Measured values from article PMC5484772.
Bridges are numbered along the chain shown (N, C = ends). Where no end group is shown, it is not given here.

Key:
Test in all cases: SPR; competition in solution, Biacore T200: 796 nM (50 ug/ml) purified DiCo mixed with PfRon2L in serial 1:3 dilutions from 12.5 uM to 5.7 nM, incubated 4 h at room temperature; residual binding of free DiCo read on biotinylated PfRon2L immobilised on a Series S streptavidin chip; buffer control set to 100%
[1] = target: PfAMA1 diversity covering variant DiCo3
[2] = target: PfAMA1 diversity covering variant DiCo2
[3] = target: PfAMA1 diversity covering variant DiCo1
[4] = target: DiCo-Mix

DITQQAKDIGAGPVASCFTTRMSPPQQICLNSVVNTALS (disulfide 17-29 (inferred)) [PfRon2L]
PfRon2L concentration at full equilibrium saturation of 796 nM DiCo [1]: 12.5 µM | PfRon2L concentration for equilibrium saturation of 796 nM DiCo [1]: > 10 µM | PfRon2L concentration at full equilibrium saturation of 796 nM DiCo [2]: 12.5 µM | PfRon2L concentration for almost full saturation of 796 nM DiCo [2]: > 1000 nM | PfRon2L concentration at full equilibrium saturation of 796 nM DiCo [3]: 12.5 µM | PfRon2L concentration for almost full saturation of 796 nM DiCo [3]: > 1000 nM | PfRon2L concentration at full equilibrium saturation of 796 nM DiCo [4]: 12.5 µM | PfRon2L concentration for almost full saturation of 796 nM DiCo [4]: > 1000 nM
